Measured values published in patent US20100092974A1, “METHODS FOR SCREENING FOR MODULATORS OF CCRL2” (The Board of Trustees of the Leland Stanford Junior …, priority 2008, published 2010).

Tests used:
Assay type in all cases: cell-based
mCCRL2 = target: T1, mCCRL2 (Mus musculus, UniProt O35457); assay: intracellular calcium mobilization, CCRL2/HEK293 transfectants; conditions: HEK293 background, alone or in combination
T1 construct: The coding regions of mCCRL2, huCCRL2, mCRTH2, and huCCR10 were amplified from genomic DNA; expressed in transfected cells
T1 sequence (O35457 1-360): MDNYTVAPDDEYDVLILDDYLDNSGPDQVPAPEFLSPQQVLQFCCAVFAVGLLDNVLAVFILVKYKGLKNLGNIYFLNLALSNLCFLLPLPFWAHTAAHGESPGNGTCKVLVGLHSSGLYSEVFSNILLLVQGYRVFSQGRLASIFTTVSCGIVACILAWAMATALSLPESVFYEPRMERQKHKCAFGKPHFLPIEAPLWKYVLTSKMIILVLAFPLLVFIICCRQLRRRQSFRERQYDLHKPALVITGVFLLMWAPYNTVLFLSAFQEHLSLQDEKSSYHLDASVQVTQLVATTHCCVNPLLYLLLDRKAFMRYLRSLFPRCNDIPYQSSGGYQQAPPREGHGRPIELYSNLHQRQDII
Method: Chemoattractant-stimulated Ca^2+-mobilization was performed following Alliance for Cell Signaling protocol ID PP00000210. Cells (3×10^6/mL) were loaded with 4 μM Fluo4-AM and 0.16% Pluronic acid F-127 (Molecular Probes) in modified Iscove's medium (Iscove's medium with 1% heat inactivated bovine calf serum and 2 mM L-glutamine, Invitrogen) for 30 minutes at 37° C. The samples were mixed every 10 minutes during loading, washed once, resuspended at up to 2×10^6/mL in the same buffer, and allowed to rest in the dark for 30 minutes at room temperature. Chemoattractant-stimulated change in Ca^2+-sensitive fluorescence of Fluo-4 was measured over real-time with a FACsScan flow cytometer and CellQuest software (BD Biosciences) at room temperature under constant stirring (500 rpm). Fluorescent data were acquired continuously up to 1024 seconds at 1-second intervals. The samples were analyzed for 45 seconds to establish basal state, removed from the nozzle to add the stimuli, and then returned to the nozzle. Mean channel fluorescence over time was analyzed with FlowJo (TreeStar, Ashland, Oreg., USA) software. […] 500 μl of these chemerin-loaded cells were added to mCMKLR1/L1.2 cells loaded with Fluo4-AM, and calcium mobilization was evaluated.

huCCRL2 [1] = target: T2, huCCRL2 (Homo sapiens, UniProt O00421); assay: in vitro transwell chemotaxis, huCCRL2-HA/L1.2 transfectants; conditions: range of doses; CXCL12 and CCL19 act via endogenous CXCR4 and CCR7
T2 construct: The coding regions of mCCRL2, huCCRL2, mCRTH2, and huCCR10 were amplified from genomic DNA; expressed in transfected cells
T2 sequence (O00421 1-344): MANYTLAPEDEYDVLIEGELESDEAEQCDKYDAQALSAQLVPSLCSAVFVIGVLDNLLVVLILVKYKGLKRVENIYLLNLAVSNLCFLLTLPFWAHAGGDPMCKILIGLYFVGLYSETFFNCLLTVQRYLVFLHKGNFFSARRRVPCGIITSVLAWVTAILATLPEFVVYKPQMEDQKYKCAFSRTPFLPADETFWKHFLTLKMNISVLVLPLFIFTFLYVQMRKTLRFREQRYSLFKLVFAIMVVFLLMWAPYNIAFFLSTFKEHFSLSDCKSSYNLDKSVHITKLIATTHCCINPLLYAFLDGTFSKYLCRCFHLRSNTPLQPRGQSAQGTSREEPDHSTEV
Method: (§1) For migration experiments using cell lines, 2.5×10^5 cells/100 μl chemotaxis media (RPMI+10% fetal calf serum) were added to the top wells of 5-um pore transwell inserts (Costar, Corning, N.Y., USA), and test samples in 600 μl media were added to the bottom wells. After incubating the transwell plates for 1.5 hours at 37° C., the bottom wells were harvested and flow cytometry was used to assess migration. For primary cell chemotaxis, 1×10^6 cells/100 μl were added to the top well, and, following a 2 hour incubation at 37° C., polystyrene beads (15.0 μm diameter, Polysciences, Warrington, Pa., USA) were added to each well to facilitate normalization of the cell count. The cells were then stained for c-kit, F4/80, and/or CD11b expression and analyzed by flow cytometry. A ratio was generated and percent input migration was calculated.

mCMKLR1 [2] = target: T3, mCMKLR1 (Mus musculus, UniProt P97468); assay: in vitro transwell chemotaxis, mCMKLR1-HA/L1.2 cells; conditions: range of doses
T3 construct: expressed in transfected cells; host or cells: L1.2 mouse pre-B lymphoma cells
T3 sequence (P97468 1-371): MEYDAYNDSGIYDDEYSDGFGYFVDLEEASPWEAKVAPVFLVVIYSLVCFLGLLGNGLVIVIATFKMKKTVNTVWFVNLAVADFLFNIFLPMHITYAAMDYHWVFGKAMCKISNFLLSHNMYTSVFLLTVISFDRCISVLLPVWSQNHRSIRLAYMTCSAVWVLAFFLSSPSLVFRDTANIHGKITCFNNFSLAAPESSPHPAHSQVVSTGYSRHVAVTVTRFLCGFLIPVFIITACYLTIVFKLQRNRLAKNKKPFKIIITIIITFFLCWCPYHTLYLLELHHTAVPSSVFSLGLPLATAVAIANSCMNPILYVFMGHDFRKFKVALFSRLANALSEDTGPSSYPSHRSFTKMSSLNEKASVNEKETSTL
Method: as §1

[3] = test system: mouse peritoneal mast cells; assay: in vitro transwell chemotaxis, peritoneal mast cells; conditions: SSChigh CD11b- c-kit+ cells
Method: as §1

mCMKLR1 [4] = target: T3, mCMKLR1; assay: receptor internalization assay, mCMKLR1-HA L1.2; conditions: 100 nM chemerin
Method: (§2) The cells were then washed with 200 μl PBS and stained with mouse anti-HA (Covance, Inc) or mIgG1 isotype control, followed by staining with secondary anti-mouse IgG1 PE, fixed, and analyzed by flow cytometry.

huCCRL2 [5] = target: T2, huCCRL2; assay: receptor internalization assay, huCCRL2-HA L1.2; conditions: 100 nM chemerin, 15 min
Method: as §2

[6] = test system: mouse peritoneal mast cells; assay: chemerin internalization assay, peritoneal mast cells; conditions: 10 nM His8-tagged serum form chemerin
Method: The primary cells were also stained with F4/80 and c-kit mAbs. Secondary anti-His6 PE was added to the cells and incubated for 30 minutes on ice. […] The cells were incubated for 5 minutes on ice with either PBS or acid wash buffer (0.2 M acetic acid, 0.5 M NaCl), and then analyzed by flow cytometry. Mast cells were identified by gating on SSC^high F4/80^− c-kit^+ cells.

chemerin: protein ligand for signaling receptor CMKLR1; serum form human chemerin expressed in baculovirus-infected insect cells, His8-tag removed
agonism, intracellular calcium mobilization (mCCRL2): neither CCL2 nor chemerin functioned as agonists
transwell migration (huCCRL2 [1]): neither human nor mouse CCRL2-HA/L1.2 transfectants migrated
transwell migration (mCMKLR1 [2]): robust, dose dependent migratory response
transwell migration [3]: failed to migrate
time to ligand-induced receptor internalization (mCMKLR1 [4]): ≤ 15 min
ligand-induced receptor internalization (huCCRL2 [5]): failed to internalize
chemerin internalization (acid wash) [6]: did not internalize
